Data as given in patent publication US11618906B2, “Hydroxylation techniques” (HYPHA DISCOVERY LTD., priority 2018, dated 2023).

How the values were obtained:
Assay type in all cases: biochemical
[1] = Metabolism of 4-pyrrolidylacetophenone by P450 aluC09 and mutants; conditions: percent of substrate being converted; 0.125 mg/ml, 27° C., 16-20 hours; [CYP] per enzyme as in Table 8
How it was run: (§1)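 Mutant P450s were combined with redox partners and substrate (0.125 mg/ml) in pH 7.4 phosphate buffer with 5 mM MgCl2 and cofactor recycling (1 mM NADP, 5 mM G6P, 2 UN/ml G6PDH). Mixtures were shaken at 27° C for 16-20 hours, extracted with equal-volume acetonitrile and centrifuged. Products were quantified as conversion by UPLC-MS.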

[2] = Hydroxylation of diclofenac catalysed by cytochrome P450 aluC09 and mutants (UPLC-PDA-MS)
How it was run: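 Lyophilised CYP450aluC09 or mutants, with ferredoxin aluF03 and reductase SCF15A, incubated 16-20 hours at 27° C with 0.125 mg/ml diclofenac in 50 mM potassium phosphate pH 7.4, 5 mM MgCl2, and G6P/NADP/G6PDH regeneration. Acetonitrile-extracted; conversion by UPLC-PDA-MS against authentic hydroxylated standards.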

[3] = Hydroxylation / de-N-ethylation of napropamide catalysed by cytochrome P450 aluC09 and mutants
How it was run: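 Conversion of napropamide (0.125 mg/ml) to hydroxylated and de-ethylated metabolites was measured by UPLC-MS after acetonitrile extraction. Reactions ran 16-20 h at 27° C in pH 7.4 potassium phosphate (50 mM) with 5 mM MgCl2, 1 mM NADP, 5 mM G6P and 2 UN/ml G6PDH. Enzymes were lyophilised P450 aluC09 variants, ferredoxin aluF03 and ferredoxin reductase SCF15A.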

[4] = Metabolism of tofacitinib by P450 aluC09 and mutants; conditions: percent of substrate being converted; 0.125 mg/ml, 27° C., 16-20 hours; [CYP] per enzyme as in Table 8
How it was run: as §1

[5] = Metabolism of epothilone B by P450 aluC09 and mutants; conditions: percent of substrate being converted; 0.125 mg/ml, 27° C., 16-20 hours; [CYP] per enzyme as in Table 8
How it was run: as §1

[6] = Metabolism of tivantinib by P450 aluC09 and mutants; conditions: percent of substrate being converted; 0.125 mg/ml, 27° C., 16-20 hours; [CYP] per enzyme as in Table 8
How it was run: as §1

[7] = Metabolism of BIRB796 by P450 aluC09 and mutants; conditions: percent of substrate being converted; 0.125 mg/ml, 27° C., 16-20 hours; [CYP] per enzyme as in Table 8
How it was run: as §1

[8] = O-demethylation of indomethacin catalysed by cytochrome P450 aluC09 and mutants; conditions: % by UV peak area at 275 nm; 0.125 mg/ml substrate, 27° C., 16-20 hours
How it was run: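 Lyophilised CYP450aluC09 mutants with ferredoxin aluF03 and reductase SCF15A, 0.125 mg/ml substrate, 50 mM potassium phosphate pH 7.4, 5 mM MgCl2, G6P/G6PDH/NADP recycling. Shaken 16-20 h at 27° C. Acetonitrile-quenched, conversion measured by UPLC-MS.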

[9] = Hydroxylation of flufenamic acid catalysed by cytochrome P450 aluC09 and mutants
How it was run: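 Lyophilised CYP450aluC09 mutants with ferredoxin aluF03 and reductase SCF15A, in 50 mM potassium phosphate pH 7.4, 5 mM MgCl2, 0.125 mg/ml flufenamic acid, G6P/NADP/G6PDH NADPH regeneration. Shaken 16-20 h at 27° C; acetonitrile-quenched, conversion to two hydroxy products by UPLC-MS.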

[10] = Metabolism of ruxolitinib by P450 aluC09 and mutants; conditions: percent of substrate being converted; 0.125 mg/ml, 27° C., 16-20 hours; [CYP] per enzyme as in Table 8
How it was run: as §1

[11] = Metabolism of celecoxib by P450 aluC09 and mutants; conditions: percent of substrate being converted; 0.125 mg/ml, 27° C., 16-20 hours; [CYP] per enzyme as in Table 8
How it was run: as §1

[12] = Metabolism of ritonavir by P450 aluC09 and mutants; conditions: percent of substrate being converted; 0.125 mg/ml, 27° C., 16-20 hours; [CYP] per enzyme as in Table 8
How it was run: as §1

[13] = Metabolism of valsartan by P450 aluC09 and mutants; conditions: percent of substrate being converted; 0.125 mg/ml, 27° C., 16-20 hours; [CYP] per enzyme as in Table 8
How it was run: as §1

[14] = Hydroxylation of aceclofenac catalysed by cytochrome P450 aluC09 and mutants
How it was run: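 Conversion was assessed by UPLC-MS (UV and MS detection) after acetonitrile extraction of reactions run 16-20 h at 27° C, shaking. Reactions contained substrate at 0.125 mg/ml, P450 mutant plus ferredoxin and reductase partners, 1 mM NADP with glucose-6-phosphate regeneration, in phosphate buffer pH 7.4.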

[15] = Metabolism of buparvaquone by P450 aluC09 and mutants; conditions: percent of substrate being converted; 0.125 mg/ml, 27° C., 16-20 hours; [CYP] per enzyme as in Table 8
Method: Lyophilised material of mutants of CYP450aluC09, ferredoxinaluF03 and ferredoxin reductaseSCF15A was made as described in examples 3 and 4 and suspended in water (0.5 mL per vial) and biocatalysis was performed at 27° C. in the following conditions: 50 mM potassium phosphate pH 7.4, 5 mM MgCl2, 0.125 mg/ml substrate compound such as diclofenac (Sigma-Aldrich, UK), Aceclofenac (Tokyo Chemical Industry UK Ltd, UK), Indomethacin (Sigma-Aldrich, UK), Flufenamic acid (Sigma-Aldrich, UK), Napropamide (Sigma-Aldrich, UK), celecoxib (LC Laboratories, USA), valsartan (Tokyo Chemical Industry UK Ltd, UK), ruxolitinib (LC Laboratories, USA), 4-pyrrolidylacetophenone (Sigma-Aldrich, UK), tofacitinib (LC Laboratories, USA), bosentan (CarboSynth Ltd, UK), buparvaquone (MedChemtronica, Sweden), BIRB796 (Stratech Scientific Limited, UK), epothilone B (LC Laboratories, USA), ritonavir (Tokyo Chemical Industry UK Ltd, UK) or tivantinib (MedChemtronica, Sweden), P450AluC09 (concentration as in Table 8), 5 mM G6P, 1 mM NADP, 2 UN/ml G6PDH in a final volume of 100 μL. After 16-20 hours at 200 rpm (5 cm orbital shaker, Kuhner AG, Switzerland), reactions were extracted with an equal volume of acetonitrile, centrifuged to remove precipitated proteins and conversion assessed by UPLC-MS analysis.
However, of particular note when considering P450 concentration are the results for mutants M12, M20 and M34, as well as the deleterious impact on the range of substrate utility in mutants M39 and M40.

[16] = Metabolism of bosentan by P450 aluC09 and mutants; conditions: percent of substrate being converted; 0.125 mg/ml, 27° C., 16-20 hours; [CYP] per enzyme as in Table 8
How it was run: as §1

[17] = % by UV peak area at 275 nm, 0.125 mg/ml substrate, 27° C., 16-20 hours

B1: aluC09M39: cytochrome P450 aluC09 mutant T291K; amino acid sequence SEQ ID NO: 68 (protein, listed as Amycolatopsis lurida)
chain: MTDVEETTATLPLARKCPFSPPPEYERLRRESPVSRVGLPSGQTAWALTRLEDIREMLSSPHFSSDRQSPSFPLMVARQIRREDKPFRPSLIAMDPPEHSRARRDVVGEFTVKRMKALQPRIQQIVDEHLDALLAGPKPADLVQALSLPVPSLVICELLGVPYSDHEFFQSCSSRMLSREVTAEERMTAFEQLENYLDELVTKKEANATEDDLLGRQILKQRETGEADHGELVGLAFLLLIAGHETTANMISLGTVTLLENPDQLAKIKADPGKTLAAIEELLRVFTIAEKATSRFATADVEIGGTLIRAGEGVVGLSNAGNHDPDGFENPDTFDIERGARHHVAFGFGVHQCLGQNLARLELQIVFDTLFRRVPGLRIAVPVDELPFKHDSTIYGLHALPVTW
% conversions (avg) 4-pyrrolidylacetophenone [1]: 1.5%
4′,5-dihydroxy-diclofenac 1.38 mins [2, 17]: 2.1%
4′-hydroxy-diclofenac (1) 1.62 mins [2, 17]: 42.8%
5-hydroxy-diclofenac (2) 1.58 mins [2, 17]: 14.6%
Diclofenac (Substrate) 1.81 mins [2, 17]: 41.4%
Hydroxylated Ratio hydroxy 1:hydroxy 2 ([2]; diclofenac, ratio of UV peak areas at 275nm): 2.9
Desethyl Napropamide (1.62 min) [3, 17]: 16.3%
Desethyl-hydroxy-Napropamide (1.41 min) [3, 17]: 0.7%
Hydroxy-Napropamide (1) (1.53 min) [3, 17]: 1.4%
Hydroxy-Napropamide (2), (1.52 min) [3, 17]: 1.6%
M-2Da (unidentified) (1.89 min) [3, 17]: 2.3%
Napropamide (substrate) [3, 17]: 78.2%
Hydroxylated Ratio 2:1 ([3]; napropamide, ratio of UV peak areas): 1.2
% conversions (avg) Tofacitinib [4]: 0%
% conversions (avg) Epothilone B [5]: 1.6%
% conversions (avg) Tivantinib [6]: 7.2%
% conversions (avg) BIRB796 [7]: 0%
Indomethacin (1.74 mins) [8]: 93.0%
O-demethyl-Indomethacin (1.52 mins) [8]: 7.0%
Flufenamic Acid (Substrate) 1.93 mins [9, 17]: 94.4%
Hydroxy-Flufenamic Acid (1) 1.69 mins [9, 17]: 5.1%
Hydroxy-Flufenamic Acid (2) 1.65 mins [9, 17]: 0.5%
Hydroxylated Ratio 1:2 ([9]; flufenamic acid, ratio of UV peak areas at 275 nm): 4.9
production of hydroxyl-flufenamic acid 2 ([9]; peak at 1.65 minutes, compared to wild-type): no detectable production
% conversions (avg) Ruxolitinib [10]: 5.3%
% conversions (avg) Celecoxib [11]: 0%
% conversions (avg) Ritonavir [12]: 39.2%
% conversions (avg) Valsartan [13]: 7.8%
Aceclofenac (Substrate) (1.80 mins) [14, 17]: 63.7%
Dihydroxy-Aceclofenac (1.42 mins) [14, 17]: 4.4%
Hydroxy-Aceclofenac (1) (1.64 min) [14, 17]: 18.6%
Hydroxy-Aceclofenac (2) (1.60 min) [14, 17]: 13.3%
Hydroxylated Ratio 2:1 ([14]; aceclofenac, ratio of UV peak areas at 275 nm): 0.7
% conversions (avg) Buparvaquone [15]: 0%
% conversions (avg) Bosentan [16]: 85.1%
